Experimental data from article PMC11053944, “FRET Assays for the Identification of C. albicans HSP90-Sba1 and Human HSP90α-p23 Binding Inhibitors” (Pharmaceuticals, 2024).
Entries after “also recorded” stand apart in the source; their conditions may differ.

B1: Sba1: unlabeled C. albicans HSP90 co-chaperone Sba1 (UniProtKB A0A1D8PQ94), His6-tagged; yeast Sba1 in cited values (protein)
chain: MSSTTTQTPTVLWAQRSSEDDAAKNIIYLTIQISDPIDLKIDLKSDHLIIDSKSNDSVYSSIDYHLQIDFFKEIDPDQSKINTENGSHIFMILRKKDQQEEYWPRLTKEKLKYHYIKTDFDKWVDEDEQDEVKDDPNDFGGPGGPGGAMDFSQMLSGMGGLGGAGGSGGPGGVDLSALASQLGQAGGAGGAAGLDGEEGEEGEAEAKEAQEESNTTATEKE
modifications: left off: His6, N-terminal, state not stated
notes: unlabeled C. albicans HSP90 co-chaperone Sba1 (UniProtKB A0A1D8PQ94), His6-tagged; yeast Sba1 in cited values
B2: Aha1: C. albicans co-chaperone Aha1, activator of HSP90 ATPase (A0A1D8PU72); yeast Aha1 in cited values (protein)
chain: MVVNNPNNWHWVDKNCLPWSVDYFKDKLINLKVTDGTNNVHISEVSSVEGDVDVSQRKGKVISLFDIKIVLTFKGNTAKDDNVSGSITIPELTYDSEVDGLQFDISIYNETAENSGITDLIKKQLIPQLRTALMKFGPDLIEINSKDIQLSQDKVTSTYTKANQSSTIAATADHPKSESKPVEKKTETHSTSNIARKVVSEKDSSTVPKYNTTTLHLEPSFNTSAEQIYLTLLDEARIGAWTRSAPVIEKFPPKEGSEFKFFGGSVSGKFLKLVPNEQIVELWRLDDWKAGHFAQLDMKLVQSSGETKLVVKFSGIPIGEEERVKNNFEERYIRSIKITFGFGAVL
modifications: left off: His6, N-terminal, state not stated
notes: yeast Aha1 in cited values

Columns and labels:
[1] = target: T1, C. albicans HSP90-mNeonGreen–Sba1-mScarlet-I binding (Candida albicans, UniProt P46598, E36A); conditions: 20 µM added; 1 µM HSP90-mNeonGreen, 2 µM Sba1-mScarlet-I, 5 mM ATP
T1 construct: made in house; host or cells: E. coli BL21(DE3)
Procedure: In this investigation, 1 µM HSP90-mNeonGreen was incubated with 2 µM Sba1-mScarlet-I in reaction buffer containing 5 mM ATP either alone (UC) or with the addition of 20 µM Sba1. As a negative control, samples containing 20 µM bovine serum albumin (BSA) were used.
FRET experiments were carried out in 384-well microtiter plates (Art. No. 3766 Corning, NY, USA, or Art. No. 781906, Greiner Bio-One GmbH, Frickenhausen, Germany) containing a final volume of 20 µL and measured with a microplate reader Infinite M200Pro (Tecan, Männedorf, Switzerland). The fluorescence was measured in three channels: excitation (ex.): 488 nm/emission (em.): 525 nm (mNeonGreen fluorescence), ex.: 561 nm/em.: 610 nm (mScarlet-I fluorescence) and the FRET channel ex.: 488 nm/em.: 610 nm. The excitation and emission bandwidths were set to 9 and 20 nm, respectively. Experiments for the determination of the equilibrium dissociation constants were performed with a filter-based microplate reader Infinite F200Pro (Tecan, Männedorf, Switzerland). The fluorescence was measured in three channels using the following filters: ex.: 485 ± 20 nm/em.: 535 ± 20 nm (mNeonGreen channel), ex.: 535 ± 20 nm/em.: 612 ± 10 nm (mScarlet-I channel) and the FRET channel ex.: 485 ± 20 nm/em.: 612 ± 10 nm. […]

[2] = target: T2, C. albicans HSP90–Sba1 binding (Candida albicans, UniProt P46598); experiment: FRET inhibitor screening assay, C. albicans HSP90-Sba1 binding; conditions: 10 or 100 µM (Sba1 20 µM), triplicates, 3 mM ATP, 1% DMSO, 15 min 30 °C
T2 construct: made in house; host or cells: E. coli BL21(DE3)
T2 sequence (P46598 whole entry): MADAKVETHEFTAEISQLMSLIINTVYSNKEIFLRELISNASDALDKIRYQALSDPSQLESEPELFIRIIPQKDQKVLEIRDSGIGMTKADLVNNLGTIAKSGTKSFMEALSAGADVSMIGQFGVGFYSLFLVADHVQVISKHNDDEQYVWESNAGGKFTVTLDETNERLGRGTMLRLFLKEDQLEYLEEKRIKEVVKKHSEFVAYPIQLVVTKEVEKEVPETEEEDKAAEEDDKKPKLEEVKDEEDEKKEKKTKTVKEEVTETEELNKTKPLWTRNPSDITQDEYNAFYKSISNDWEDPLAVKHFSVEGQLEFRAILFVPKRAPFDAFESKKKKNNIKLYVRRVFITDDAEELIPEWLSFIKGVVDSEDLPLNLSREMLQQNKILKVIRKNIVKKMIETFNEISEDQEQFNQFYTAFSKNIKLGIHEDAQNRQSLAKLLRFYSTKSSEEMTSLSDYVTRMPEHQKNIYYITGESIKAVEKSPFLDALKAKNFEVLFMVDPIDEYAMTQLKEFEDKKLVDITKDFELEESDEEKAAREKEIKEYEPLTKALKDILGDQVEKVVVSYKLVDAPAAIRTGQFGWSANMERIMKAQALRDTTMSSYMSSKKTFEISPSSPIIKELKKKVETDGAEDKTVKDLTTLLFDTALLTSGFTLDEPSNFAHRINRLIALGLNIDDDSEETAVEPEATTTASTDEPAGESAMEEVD
Description: We used the Z′ factor (Z′) to optimize the FRET assays for screening purposes. Z′ represents a simple statistical parameter for the quality assessment and optimization of HTS assays and screening assays in general. It is a measure that determines the degree of signal separation between binding and non-binding data sets. Calculation of the Z′ factor is based on the standard deviation of the individual data sets as well as their general signal separation. Values ≥ 0.5 can be classified as excellent for screening purposes. […] Consequently, the fluorescence intensity of the donor decreases (FLDD). […] To obtain an informative Z′ value, we calculated it based on at least three independent experiments amounting to 144 samples for both binding and non-binding control data sets (Figure 4B,E). […] We defined the ‘hit threshold’ as a decrease in readout signal of more than 3 standard deviations (SDs) from the mean signal of the binding control. […]
FRET experiments were carried out in 384-well microtiter plates (Art. No. 3766 Corning, NY, USA, or Art. No. 781906, Greiner Bio-One GmbH, Frickenhausen, Germany) containing a final volume of 20 µL and measured with a microplate reader Infinite M200Pro (Tecan, Männedorf, Switzerland). […] Experiments for the determination of the equilibrium dissociation constants were performed with a filter-based microplate reader Infinite F200Pro (Tecan, Männedorf, Switzerland). […]

S. cerevisiae HSP90 = conditions: cited from earlier work
C. albicans HSP90 = target: T3, C. albicans HSP90 (Candida albicans, UniProt P46598); experiment: ADP-Glo assay, HSP90 ATPase activity; format: biochemical; conditions: HSP90 2.5 µM, 1 mM ATP, 1 h 30 °C; Aha1 alone: up to, at 8-fold molar excess; co-incubation: 20 µM each
T3 construct: made in house; host or cells: E. coli BL21(DE3)
T3 sequence (P46598 whole entry): as above
Procedure: The ADP-Glo™ assay (Promega GmbH, Waldorf, Germany) was performed according to the manufacturer’s protocol. […] The reaction mixture was incubated for 1 h at 30 °C. After 5 min re-tempering to room temperature, 5 µL of ADP-Glo reagent was added to the samples to terminate the kinase reaction and deplete the remaining ATP for 40 min at room temperature. Afterward, 10 µL Kinase Detection Reagent was added to convert the generated ADP back to ATP. In that way, synthesized ATP was measured in a luciferase/luciferin reaction. Luminescence was detected with an Infinite M200 Pro (Tecan, Männedorf, Switzerland) in a 384-well microtiter plate (Art. No. 781075, Greiner Bio-One GmbH, Frickenhausen, Germany) after 40 min for 100 µM ATP samples, or 60 min for 1 mM ATP samples. The luminescence intensity of the sample containing only HSP90 was set to 100%, and the luminescence intensities of the other samples were related to it.

Molecule | effect on FRET emission (EmFRET) versus untreated control [1] | hit identification (EmFRET/FLDD decrease of more than 3 SDs from binding control mean) [2] | ATPase activity, % of initial value in the absence of Sba1 (S. cerevisiae HSP90; decrease to up) [%] | increase in HSP90 ATPase activity (C. albicans HSP90) [fold] | stimulation in ATPase activity (S. cerevisiae HSP90; up to, 5–10-fold molar excess Aha1/HSP90, ref 32 (Wolmarans et al.))
B1 | significant reduction in FRET emission | identified as disrupting; also recorded: identified as hits | 50 | – | –
B2 | – | – | – | 7 | ~ 20 fold
